Results published in article doi:10.1101/2020.09.10.281741.

Tests used:
[1] = molecular target: Glc-HMW1ct (glycosylated HMW1ct, mixture of 7,8,9,10-Glc glycoforms) (H. influenzae); experiment: SPR
[2] = molecular target: His6-HMW1ct (C-terminal region of the HMW1A adhesin of H. influenzae, non-glycosylated) (H. influenzae); experiment: SPR

ApNGT-His6 (N-glycosyltransferase from Actinobacillus pleuropneumoniae) (from UniProt A3N2T3 1-620) (enzyme)
Kd [1]: 9.81 µM | Kd [2]: 5.85 µM
